Experimental data: paper PMC6482957 (Nature structural & molecular biology, 2018)

Key:
[1] = biological target: T1, human p300 ZZ domain (aa 1663–1713) (human, UniProt Q09472 1663-1713); test: crystal structure
T1 sequence: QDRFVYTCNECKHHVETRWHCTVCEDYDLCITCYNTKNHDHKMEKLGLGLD

[2] = biological target: T1, human p300 ZZ domain (aa 1663–1713); test: NMR titration
[3] = biological target: T2, p300 HAT-ZZ domain (aa 1287–1713, Y1467F) (human, UniProt Q09472 1287-1713, Y1467F); test: NMR titration
T2 sequence: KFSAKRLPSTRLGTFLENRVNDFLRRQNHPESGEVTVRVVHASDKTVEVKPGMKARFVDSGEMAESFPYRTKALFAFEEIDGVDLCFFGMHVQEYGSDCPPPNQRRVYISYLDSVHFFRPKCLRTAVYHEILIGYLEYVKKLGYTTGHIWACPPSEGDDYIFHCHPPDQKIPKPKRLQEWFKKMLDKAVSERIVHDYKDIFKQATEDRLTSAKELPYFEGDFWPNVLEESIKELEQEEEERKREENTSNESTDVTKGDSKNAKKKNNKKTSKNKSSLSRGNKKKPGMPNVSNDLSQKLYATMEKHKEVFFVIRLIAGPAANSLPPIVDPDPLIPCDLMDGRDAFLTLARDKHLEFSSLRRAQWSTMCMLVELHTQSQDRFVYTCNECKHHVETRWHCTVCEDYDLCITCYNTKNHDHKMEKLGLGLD

Binder: ARTKQT [histone H3 tail (residues 1–6)]
- binding result [1]: binds

Binder: VRTKQT [H3A1V1–6]
- fold reduction in binding against the peptide with Ala1 [2]: ~3 fold

B1: p300 BD-RING-PHD region (aa 1047–1278) (domain or fragment)
chain: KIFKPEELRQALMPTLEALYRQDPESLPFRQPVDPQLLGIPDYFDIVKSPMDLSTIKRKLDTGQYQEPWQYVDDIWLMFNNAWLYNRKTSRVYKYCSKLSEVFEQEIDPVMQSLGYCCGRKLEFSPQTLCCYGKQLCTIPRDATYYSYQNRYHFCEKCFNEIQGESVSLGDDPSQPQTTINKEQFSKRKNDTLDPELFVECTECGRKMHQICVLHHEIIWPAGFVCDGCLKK
- binding result [3]: binds
